For this assay, the target named is T1, CryET39 crystal protein (Bacillus thuringiensis delta-endotoxin, approximately 44-kDa) (Bacillus thuringiensis (strain EG5899)).
T1 sequence: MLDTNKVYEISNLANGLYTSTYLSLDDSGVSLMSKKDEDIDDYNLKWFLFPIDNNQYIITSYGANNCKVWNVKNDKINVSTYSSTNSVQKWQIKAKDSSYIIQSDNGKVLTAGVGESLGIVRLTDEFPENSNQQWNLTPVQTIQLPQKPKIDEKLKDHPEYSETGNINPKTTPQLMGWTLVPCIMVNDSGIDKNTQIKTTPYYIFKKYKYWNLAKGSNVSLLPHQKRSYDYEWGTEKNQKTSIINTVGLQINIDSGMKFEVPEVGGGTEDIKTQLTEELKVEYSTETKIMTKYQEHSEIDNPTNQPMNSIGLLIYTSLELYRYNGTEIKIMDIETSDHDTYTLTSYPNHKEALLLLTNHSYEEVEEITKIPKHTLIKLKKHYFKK
Nature of the assay: cell-based or functional assay.

B1: CryET74 crystal protein (Bacillus thuringiensis delta-endotoxin, approximately 13-15-kDa) (protein)
chain: MSAREVHIEINNKTRHTLQLEDKTKLSGGRWRTSPTNVARDTIKTFVAESHGFMTGVEGIIYFSVNGDAEISLHFDNPYIGSNKCDGSSDKPEYEVITQSGSGDKSHVTYTIQTVSLRL
Take B1: the Percent Control (WCRW larval mortality corrected for diluent control); 50:50 mixture EG11935 (CryET74) + EG11937 (1) (CryET39), dose 80 µg/well (percent control) stood at 100; the Percent Control (WCRW larval mortality corrected for diluent control); 50:50 mixture EG11935 (CryET74) + EG11937 (1) (CryET39), dose 160 µg/well (percent control) was 100; the Percent Control (WCRW larval mortality corrected for diluent control); 50:50 mixture EG11935 (CryET74) + EG11937 (2) (CryET39), dose 80 µg/well (percent control) stood at 100; the Percent Control (WCRW larval mortality corrected for diluent control); 50:50 mixture EG11935 (CryET74) + EG11937 (2) (CryET39), dose 160 µg/well (percent control) turned out to be 93.3. Further, the Percent Control (WCRW larval mortality corrected for diluent control); EG11936 (CryET39 + CryET74 co-expressed), dose 80 µg/well (percent control) came out at 100 and the Percent Control (WCRW larval mortality corrected for diluent control); EG11936 (CryET39 + CryET74 co-expressed), dose 160 µg/well (percent control) turned out to be 100.

Values taken from patent US20030232757A1.
